2 molecules from patent US20240384250A1, “FIBROBLAST GROWTH FACTOR 23 MODULATING COMPOUNDS” (THE UAB RESEARCH FOUNDATION, priority 2021, published 2024) can be followed below.

Entries after “also recorded” stand apart in the source; their conditions may differ.

For assay [1], the target named is T1, FGFR1c (Homo sapiens, UniProt P11362).
T1 construct: Fc-coupled FGFR ectodomains were immobilized on protein A/G beads; purchased R&D Systems 658FR050
T1 sequence (P11362 22-376 limits assumed): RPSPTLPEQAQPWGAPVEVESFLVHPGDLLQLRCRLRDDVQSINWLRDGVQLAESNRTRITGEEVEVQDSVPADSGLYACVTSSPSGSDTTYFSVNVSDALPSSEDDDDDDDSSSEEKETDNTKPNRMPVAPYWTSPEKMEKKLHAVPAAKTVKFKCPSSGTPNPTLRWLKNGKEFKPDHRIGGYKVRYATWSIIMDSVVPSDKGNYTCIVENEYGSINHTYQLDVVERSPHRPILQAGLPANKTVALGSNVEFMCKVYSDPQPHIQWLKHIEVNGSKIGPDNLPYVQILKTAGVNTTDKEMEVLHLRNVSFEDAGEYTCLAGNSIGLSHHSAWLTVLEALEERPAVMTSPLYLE
The experiment in a line: Plate-based binding assay, FGFR1c coated, FLAG-sKL detected with anti-FLAG HRP. The conditions noted are these: for binding of FLAG-sKL to coated FGFR1c: 40 ng FGFR1c coated, 80 ng FLAG-sKL, compared with FGFR4 and FGF23. As to the method: Proteins were coated on 96-well plates (MaxiSorp; 439454, Thermo Fisher Scientific), and proteins were added to wells in 100 μl of enzyme-linked immunosorbent assay (ELISA) coating buffer (E107, Bethyl Laboratories) with a lid placed overtop and incubated at 4° C. overnight. Plates were washed 5× with 350 μl of assay buffer (50 mM Tris [pH 7.4], 200 mM NaCl, 0.01% Tween 20) on a 50 TS microplate washer (BioTek). Plates were blocked for 1 hour in 200 μl of assay buffer with 0.5% BSA. Plates were washed as before, and proteins were incubated on plates in 100 μl of assay buffer with 0.5% BSA. Proteins or heparin was incubated in orders described in the respective figure legends. Assays using FLAG-tag-based detection were incubated with anti-FLAG coupled to HRP at 1:20,000, and assays using Fc detection were incubated with anti-human Fc coupled to HRP at 1:10,000. Plates were washed as above, and 100 μl of 3,3′,5,5′-tetramethylbenzidine (TMB) substrate (E102, Bethyl Laboratories) was added for 15 to 20 minutes until positive wells developed a dark blue color. Reactions were stopped with ELISA stop solution (E115, Bethyl Laboratories) and analyzed using the Synergy HI plate reader (BioTek) at 450 nm wavelength. […] As a control to remove background absorbance values, wells were coated with an equal amount of BSA to match the amount of protein coated in experimental wells and treated the same as experimental wells. To study the effects of sKL on the binding between paracrine FGFs and FGFRs, plates were run as above except coated with paracrine FGFs. Fc-FGFR1 was preincubated with sKL or vehicle for 60 minutes, and then the combination was added to wells and the assay was run as before.

Assay [2] deals with T2, FGFR4 (Homo sapiens, UniProt P22455).
T2 construct: Fc-FGFR4 protein (human ectodomain) was immobilized; purchased R&D Systems 685FR050
T2 sequence (P22455 22-369 limits assumed): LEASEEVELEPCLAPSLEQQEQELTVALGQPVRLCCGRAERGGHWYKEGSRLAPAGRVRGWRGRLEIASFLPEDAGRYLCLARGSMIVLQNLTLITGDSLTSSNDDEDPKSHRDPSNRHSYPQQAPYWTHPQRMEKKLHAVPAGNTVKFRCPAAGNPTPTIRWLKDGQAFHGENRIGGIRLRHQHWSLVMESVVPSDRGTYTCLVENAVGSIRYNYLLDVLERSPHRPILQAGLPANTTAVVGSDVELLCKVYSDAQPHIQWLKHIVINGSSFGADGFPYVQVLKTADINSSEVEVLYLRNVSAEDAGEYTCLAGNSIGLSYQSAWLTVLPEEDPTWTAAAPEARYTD
Briefly: Surface plasmon resonance, FGFR4 ectodomain immobilized on chip. It counts as binding. The conditions noted are these: SPR. As to the method: For the direct quantitative analysis of label-free molecular interactions in real time, surface plasmon resonance studies were conducted using BIAcore T200 and T200 evaluation software (28975001, Cytiva). Sensor SA (BR100398) and CMS chips (BR100399) were from Cytiva. For the preparation of heparin chips, heparin (2 mg) and amine-PEG3-Biotin (2 mg, 21347, Pierce) were dissolved in 200 μl of H2O and 10 mg of NaCNBH3 was added. The reaction mixture was heated at 70° C. for 24 hours; an additional 10 mg of NaCNBH3 was added; and the reaction was heated at 70° C. for another 24 hours. After cooling to room temperature, the mixture was desalted with the spin column (3000 MWCO). Biotinylated heparin was collected, freeze dried, and used for chip preparation. Biotinylated heparin was immobilized to streptavidin chips according to the manufacturer's protocol. In brief, 20 μl of biotinylated heparin solution (0.1 mg/ml) in HBS-P running buffer (0.01 M N-2-hydroxyethylpiperazine-N′-2-ethanesulfonic acid, 0.15 M NaCl, 0.005% surfactant P20 [pH7.4]; BR100368, Cytiva) was injected over flow cell 2 of the streptavidin chip at a flow rate of 10 μl/min. The successful immobilization of heparin was confirmed by the observation of an approximately 200-resonance unit increase in the sensor chip. The control flow cell (flow cell 1) was prepared by 1-minute injection with saturated biotin. For the preparation of FGFR4 chips, Fc-FGFR4 protein (human ectodomain) was immobilized on research grade CMS chips according to the standard amine coupling protocol. Briefly, carboxymethyl groups on the CMS chip surface were first activated using an injection pulse of […] of an equimolar mix of N-ethyl-N-(dimethylaminopropyl) carbodiimide and N-hydroxysuccinimide (final concentration 0.05 M, mixed immediately before injection). After activation, FGFR4 was diluted to […] in 100 mM sodium acetate (pH 5.5) buffer and injected over the activated biosensor surface. […] The response was monitored as a function of time (sensorgram) at 25° C.

B1: sKL: recombinant soluble α-klotho ectodomain, mouse aa 35-982 and human aa 34-981, FLAG- or Strep/His-tagged, purified from HEK293 cells (protein)
chain: EPGDGAQTWARFSRPPAPEAAGLFQGTFPDGFLWAVGSAAYQTEGGWQQHGKGASIWDTFTHHPLAPPGDSRNASLPLGAPSPLQPATGDVASDSYNNVFRDTEALRELGVTHYRFSISWARVLPNGSAGVPNREGLRYYRRLLERLRELGVQPVVTLYHWDLPQRLQDAYGGWANRALADHFRDYAELCFRHFGGQVKYWITIDNPYVVAWHGYATGRLAPGIRGSPRLGYLVAHNLLLAHAKVWHLYNTSFRPTQGGQVSIALSSHWINPRRMTDHSIKECQKSLDFVLGWFAKPVFIDGDYPESMKNNLSSILPDFTESEKKFIKGTADFFALCFGPTLSFQLLDPHMKFRQLESPNLRQLLSWIDLEFNHPQIFIVENGWFVSGTTKRDDAKYMYYLKKFIMETLKAIKLDGVDVIGYTAWSLMDGFEWHRGYSIRRGLFYVDFLSQDKMLLPKSSALFYQKLIEKNGFPPLPENQPLEGTFPCDFAWGVVDNYIQVDTTLSQFTDLNVYLWDVHHSKRLIKVDGVVTKKRKSYCVDFAAIQPQIALLQEMHVTHFRFSLDWALILPLGNQSQVNHTILQYYRCMASELVRVNITPVVALWQPMAPNQGLPRLLARQGAWENPYTALAFAEYARLCFQELGHHVKLWITMNEPYTRNMTYSAGHNLLKAHALAWHVYNEKFRHAQNGKISIALQADWIEPACPFSQKDKEVAERVLEFDIGWLAEPIFGSGDYPWVMRDWLNQRNNFLLPYFTEDEKKLIQGTFDFLALSHYTTILVDSEKEDPIKYNDYLEVQEMTDITWLNSPSQVAVVPWGLRKVLNWLKFKYGDLPMYIISNGIDDGLHAEDDQLRVYYMQNYINEALKAHILDGINLCGYFAYSFNDRTAPRFGLYRYAADQFEPKASMKHYRKIIDSNGFPGPETLERFCPEEFTVCTECSFFHTRKS
modifications: left off: small tags and cut ends
notes: recombinant soluble α-klotho ectodomain, mouse aa 35-982 and human aa 34-981, FLAG- or Strep/His-tagged, purified from HEK293 cells
Turning to B1, the “binding of FLAG-sKL to coated FGFR1c” value in assay [1] was “highest affinity”; in assay [1] (listed as FLAG-sKL) it was “highest affinity; also recorded: bound FGFR1c”. Further, the “FGFR1c binding, protein from HEK293 lysates instead of supernatants” value in assay [1] (200 ng FGFR1c coated) is reported as “smaller increase”.

B2: FGF23: recombinant fibroblast growth factor 23 protein from R&D Systems (protein)
chain: YPDTSPLLGSNWGSLTHLYTATARTSYHLQIHRDGHVDGTPHQTIYSALMITSEDAGSVVITGAMTRRFLCMDLHGNIFGSLHFSPENCKFRQWTLENGYDVYLSQKHHYLVSLGRAKRIFQPGTNPPPFSQFLARRNEVPLLHFYTVRPRRHTRSAEDPPERDPLNVLKPRPRATPVPVSCSRELPSAEEGGPAASDPLGVLRRGRGDARGGAGGADRCRPFPRFV
With B2, the Kd in assay [2] came to 320 nM. Moreover, in assay [2] (25° C.), the ka was 1.2 × 10^3 1/MS and the kd is reported as 0.04 1/S.
